Residue numbers refer to the chain shown, from its start. Read-outs that look alike come from different tables or passages of the source.
T1: monkey CD3ε-his (Cat #: 90047-C08H, SinoBiological, China) (monkey, UniProt Q95LI5 22-117)
T1 construct: Bought protein; also called monkey CD3ε protein; recombinant monkey CD3ε
T1 sequence: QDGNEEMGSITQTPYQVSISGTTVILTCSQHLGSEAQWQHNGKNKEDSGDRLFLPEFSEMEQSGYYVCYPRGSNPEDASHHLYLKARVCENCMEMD

B1: chimeric antibody 19-15 (full length, human IgG1) (antibody, V domains shown)
VH: EVKLLESGGGLVQPKGSLKLSCAASGFTFNTYAMNWVRQAPGKGLEWVARIRSKYNNYATYYAISVKDRFTISRDDSQSILYLQMNNLKTEDTAMYYCVRHGNFGNSYLSYWAYWGQGTLVTVSA
VL: QAVVTQESALTTSPGETVTLTCQSSTGAVTTNNYANWVQEKPDHLFTGLIGGTKQRAPGVPARFSGSLIGDKAALTITGAQTEDEAIYFCVLWYSNLWVFGGGTKLTVLG
B2: humanized anti-CD3 antibody 26H2L3 (human IgG1) (antibody, V domains shown)
VH: EVQLLESGGGLVQPGGSLRLSCAASGFTFNTYAMNWVRQAPGKGLEWVARIRSKYNNYATYYADSVKDRFTISRDNSKNTLYLQMNSLRAEDTAVYYCVKHGNFGNSYISWWAYWGQGTLVTVSS
VL: QAVVTQEPSLTVSPGGTVTLTCKSSTGAVTTSNYANWVQQKPGHAFRGLIGGTNLHAPGVPARFSGSLLGGKAALTLSGVQPEDEAEYYCALWYSNLWVFGGGTKLTVLG
B3: humanized anti-CD3 antibody 15H3L3 (human IgG1, light constant region SEQ ID NO: 23) (antibody)
heavy: not shown
light: QAVVTQEPSLTVSPGGTVTLTCQSSTGAVTTNNYANWVQQKPGHAFRGLIGGTKQRAPGVPARFSGSLLGGKAALTLSGVQPEDEAEYYCVLWYSNLWVFGGGTKLTVLGQPKAAPSVTLFPPSSEELQANKATLVCLISDFYPGAVTVAWKADSSPVKAGVETTTPSKQSNNKYAASSYLSLTPEQWKSHRSYSCQVTHEGSTVEKTVAPTECS
B4: chimeric antibody 19-26 (full length, human IgG1) (antibody, V domains shown)
VH: B1 VH with I64D, L109I, Y111W
VL: B1 VL with Q23K, N32S, K54N, Q55L, R56H, V91A
B5: humanized anti-CD3 antibody 15H3L2 (human IgG1) (antibody, V domains shown)
VH: B2 VH with D64I, N76D, V95M, K100R, I109L, W111Y
VL: QTVVTQEPSLTVSPGGTVTLTCQSSTGAVTTNNYANWVQQKPGQAPRALIGGTKQRAPGTPARFSGSLLGGKAALTLSGVQPEDEAEYYCVLWYSNLWVFGGGTKLTVLG
B6: mAB2 (anti-CD3 antibody of Macrogenics, positive control) (antibody, V domains shown)
VH: B2 VH with L5V, R19K, N76D, L81A, R89K, A90T, K100R, N106D, I109V, W112F
VL: QTVVTQEPSLTVSPGGTVTLTCRSSTGAVTTSNYANWVQQKPGQAPRGLIGGTNKRAPGTPARFSGSLLGGKAALTLSGVQPEDEAEYYCALWYSNLWVFGGGTKLTVL

How the values were obtained:
[1] = biological target: T2, human CD3ε-his (Cat #:10977-H08s, SinoBiological, China) (human, UniProt P07766 23-126); experiment: ELISA: plate coated with human CD3ε-his, antibody titrated, HRP goat anti-human IgG, OD450
T2 construct: Bought protein; also called human CD3ε protein; recombinant human CD3ε; not shown: his tag
T2 sequence (P07766 23-126 limits assumed): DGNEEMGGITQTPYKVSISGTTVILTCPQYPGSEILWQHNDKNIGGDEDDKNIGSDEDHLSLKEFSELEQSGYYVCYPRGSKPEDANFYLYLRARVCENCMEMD

[2] = biological target: T3, human TCR/CD3 complex on cell surfaces (primary human CD4+ T cells; Jurkat cells; human PBMCs) (human, UniProt P07766 23-207); experiment: FACS on primary human T cells, PE goat anti-human IgG, MFI
T3 construct: whole, on cells; Native complex on cells; the γ, δ, ζ and TCR chains of the complex are present on the cells too; also called human CD3 complexes on cell surfaces; human CD3+ T cells
T3 sequence (P07766 23-207, one chain of several): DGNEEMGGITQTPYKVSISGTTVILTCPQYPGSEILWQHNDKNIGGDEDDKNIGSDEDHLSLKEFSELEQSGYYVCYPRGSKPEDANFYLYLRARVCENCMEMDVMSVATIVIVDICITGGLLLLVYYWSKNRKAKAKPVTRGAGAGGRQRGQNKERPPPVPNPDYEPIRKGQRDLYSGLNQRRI

[3] = biological target: T2, human CD3ε-his (Cat #:10977-H08s, …); experiment: ELISA: plate coated with human CD3ε-his, antibody titrated, HRP goat anti-human IgG, OD 450
[4] = biological target: T1, monkey CD3ε-his (Cat #: 90047-C08H, …); experiment: ELISA: plate coated with monkey CD3ε-his, antibody titrated, HRP goat anti-human IgG, OD 450
[5] = biological target: T2, human CD3ε-his (Cat #:10977-H08s, …); experiment: SPR (BIAcore 8K); human CD3ε-his coupled to CM5 chip, antibody injected
[6] = biological target: T1, monkey CD3ε-his (Cat #: 90047-C08H, …); experiment: ELISA: plate coated with monkey CD3ε-his, antibody titrated, HRP goat anti-human IgG, OD450
[7] = biological target: T1, monkey CD3ε-his (Cat #: 90047-C08H, …); experiment: ELISA: plate coated with monkey CD3ε-his, antibody titrated, HRP goat anti-human IgG, OD 450; remark: listed apart in the source
[8] = biological target: T2, human CD3ε-his (Cat #:10977-H08s, …); experiment: ELISA: plate coated with human CD3ε-his, antibody titrated, HRP goat anti-human IgG, OD 450; remark: listed apart in the source
[9] = biological target: T3, human TCR/CD3 complex on cell surfaces …; experiment: FACS on primary human T cells, PE goat anti-human IgG, MFI; remark: listed apart in the source
[10] = biological target: T3, human TCR/CD3 complex on cell surfaces …; experiment: as above; remark: listed apart in the source

Row | Binder | EC50 (read off the curve) [1] | EC50 (read off the curve) [2] | EC50 (read off the curve) [3] | EC50 (read off the curve) [6] | EC50 (read off the curve) [7] | EC50 (read off the curve) [8] | EC50 (read off the curve) [9] | EC50 (read off the curve) [10] | other results
1 | B1 | ~60 µg/mL | ~200 µg/mL | ~0.05 µg/mL | ~60 µg/mL | – | – | – | – | EC50 (read off the curve) [4]: ~0.04 µg/mL; kon [5]: 229000 M⁻¹ s⁻¹
2 | B2 | – | – | – | – | ~0.1 µg/mL | ~0.1 µg/mL | ~0.1 µg/mL | – | –
3 | B3 | ~300 µg/mL | – | – | ~300 µg/mL | – | – | – | ~0.2 µg/mL | –
4 | B4 | – | ~700 µg/mL | ~0.05 µg/mL | – | ~0.1 µg/mL | ~0.1 µg/mL | ~0.2 µg/mL | – | –
5 | B5 | ~100 µg/mL | – | – | ~100 µg/mL | – | – | – | ~0.2 µg/mL | –
6 | B6 | – | – | – | – | – | – | – | – | Kd [5]: 0.154 nM

— patent publication US20220195043A1 (BEIJING MABWORKS BIOTECH, published 2022)
